{"source": "the DeepSol protein solubility set"}
{"test": "soluble on expression in E. coli; label from the status in PepcDB or PDB records"}
{"sequence": "MTPLKRYQKDIAEHGFQRDEAQHQAVVALDKLYHDIVEFQSAPIPQLSKWQKLMGKKVEMPQPPKGLYFWGGVGRGKTYLMDAFFDALPTDRKMRVHFHRFMYRVHDELKRLGEVENPLSKVADLFKQEADIVCFDEFFVSDITDAMILATLLQEMFKRQMVLVATSNIEPQNLYRNGLQRARFLPAIDMILARCHVLNVDSGVDYRLRTLEQAEIYHYPLDEQASINLNTYYQQLTAERKSVAHKIDINHRQISVIEASDGVLHASFEQLCQTARSQNDYIELSRIYHTVLLADVRQMNRKIDDAARRFIALVDEFYERNVKLIISAEVEMDALYSEGQLEFEFKRCVSRLTEMQSHEYLAREHLALEHHHHHH", "soluble on expression in E. coli": "soluble"}
{"sequence": "MAHHHHHHMLRARTLLLFMRPEAAAAELRRLLPLLSFAGRRTGAATHSVASLIVSTAYSATAARSVTNHSRDCPVLSKKLPLPLIGKESSFAARPCLNCVRERVHYVSSLSFCDYFEKKCAEAQHYRNGASSNGVVGTAALPKLLLEAIERSYGSVAAFKDSVMLHSTGAMSPGRLWIVYTPPISGSEHGAVRLLNLPACKVPLVHGLWPLAVINMTEKRLCEQIACRSGKGGDAVDADDAPAWRHAARTRKTLGALATTEEGNDRAGNVAQVKLSSIQSAIAEEALCAMNWKFVETQLTSALAYYSSKERTQTQREHRKEKEHVAAVRAMSQLKNSGAVIHATDSVTITSSNSFVASSASEPNLSAAAAVTSSSAKAENSALGEANTQTAAVAAPSAEATAANTASNSAQPADNTATGAAAAEPRAVQQADGTWEYHYNNGSVTKALPDGTKVFQTESLTTTVFVNGDTLFEYPNNTSILDRADGVRVITYADGTKKEERLK", "soluble on expression in E. coli": "soluble"}
{"sequence": "MSLDNFIAGLPKLELHLHIEGSLEPELMFALGQRNGVALPWPDVASVRAAYEFDCLQSFLDLYYLGASVLITEQDFFDLTWAYLERCAADKVVHVEIFFDPQTHTARGVPFATVLGGIERALQRGEWEFGISWRLIMSFLRHLSEEDAFATLAEATPFLSRIHGIGLDSGEKGNPPSKFARVFARCRELGLPVVAHAGEEGPADYIWQAIRELEVRRIDHGVRCVDDPDLLRYLADTRLPLTVCPLSNTRLKVFDQMAHHNVLALLEQGLCVTINSDDPAYFGGYMNANFHALAHELGASMNQLCRLSLNAVEASWLSLADKARLTREGHHHHHH", "soluble on expression in E. coli": "soluble"}
{"sequence": "MKTLNLLAPVSQLLKPLRRQSSSRVNALLINVPRVQLSKGKNKYLLMMIHMHGLTRFGRTIVRGSASKDHEEIFEEIQKEMDKIGICAKCLGGGFISNKEDKKVMKIYGCCKTFGEAPHGRTKDILLSWTKFQHYNIILPKKNLNAYQLEHHHHHH", "soluble on expression in E. coli": "not soluble"}
{"sequence": "MTDFSRTFSGTPSAVLPTANRFFRPPLPSAHVARPRLCRRLRDGLDGRLLLIAAPAGFGKSSLAIEFCESLDPRWQSLWLGLSSRESDPGRFLERLLDGLRQYHPTLGEEALGLLKMRQRHQPFAFETWLDDLLDELAPCLDPQRPLLLVLDDYHLAQGAVLDRCLQFLLNHLPEGLVLLVTSRQRPDWHLARLRLSRQLLELSEQDLRLTAEESGALMAASGLELDEDALDALLERSEGWVAGLRLWLLARGDPEEQVSPGVHGADELIRDYLLEEVIERQPPEVQAFLAQTARFERFCAELCDTVREAGDSAAILDHLQQHQVFLVPLDENGQWFRYHHLFSDLLLARPLPDFGPSAGSLHLRACGWFSRHGLLDQAVEQALRAGQPDVAASLVQNLSEEQLLAEQNIATLLRWKMDLPDSLLASTPRLILLYGWALALACQLDAAEELAGQLARFLPAPDESAQRDLLAQWQALSGVIARGRGDIDKAEAHCREALQDLAGERYGTRLQCLSTLSNLAVTRGDFWQA", "soluble on expression in E. coli": "not soluble"}
{"sequence": "VHPLPADHGRSRCNRHPISPLSLIGNASATSGDMSSMTRIAKPLIKSAMAAGLVTASMSLSTAVAHAGPSPNWDAVAQCESGGNWAANTGNGKYGGLQFKPATWAAFGGVGNPAAASREQQIAVANRVLAEQGLDAWPTCGAASGLPIALWSKPAQGIKQIINEIIWAGIQASIPR", "soluble on expression in E. coli": "not soluble"}
{"sequence": "MGSDKIHHHHHHMLANQNVRARVQNHQLFSSLNEAQLAKIFATASLLHIKPEQMLFHQGELASRFYFVLAGTLQLFRTNVQGQMKVIEVVRSGCTFAEALMFNKQTRFPVSAQSVSECALVSFDSETYLQLLKHNPDACIAIMADLSVRIRKHINEVEMVSLQNAQHRLLLFLLRKMTVVGDNQGEITLDIPKRLLASRLSIQPETFSRLIKKMSQTGLIAESHGVIRIPDVALLYASTDISITQPTFNQQGPSSAIPLVCN", "soluble on expression in E. coli": "not soluble"}
{"sequence": "MRKIVLLSQIVRPALSSARFVHTSTPLSWQKFENERHFEPGEDVMKRVWHGLSYDFRRWKRRFQEARKDAFKRRHPIAHMKHGTLDNEVFPYRAEIVIIGGGLSGSSTAFWLKERFRDEDFKVVVVENNDVFTKSSTMLSTGGITQQFSIPEFVDMSLFTTEFLRHAGEHLRILDSEQPDINFFPTGYLRLAKTDEEVEMMRSAWKVQIERGAKVQLLSKDELTKRYPYMNVDDVLLASLGVENEGTIDTWQLLSAIREKNITLGVQYVKGEVEGFQFERHRASSEVHAFGDDATADENKLRAQRISGVLVRPQMNDASARPIRAHLIVNAAGPWAGQVAKMAGIGKGTGLLAVPVPIQPRKRDVFVIFAPDVPSDLPFIIDPSTGVFCRQTDSGQTFLVGRTPSKEEDAKRDHSNLDVDYDDFYQKIWPVLVDRVPGFQTAKVKSAWSGYQDINTFDDAPVIGEHPLYTNLHMMCGFGERGVMHSMAAARAYAERIFDGAYINVNLRKFDMRRIVKMDPITEPCRL", "soluble on expression in E. coli": "not soluble"}
{"sequence": "SLMDVKCETPNCPFFMSVNTQPLCHECSERRQKNQN", "soluble on expression in E. coli": "soluble"}
{"sequence": "MLLQANRGLGLSAHIIDHCNLILKFPEGTNSTWYNAQFKVFEALEFKYNVCEAVLLWEQYRNMTTVLTREYLDVRPDGWLDYAAMRIAQLGADKCYNRTLCEEHLNVILPAKPPFHPRQFHKCAVVGNSGDLLKTEFGEEIDSHDAVFRDNEAPVNEKYAKYVGVKRDFRLVVRGAARNMIKILNGSDNEVLIIKSVTHRDFNEMIKRIPNPVYLFQGIVLRRGAKGTGMKSIELALSMCDIVDIYGFTVDPGYTEWTRYFSTPRKGHNPLQGRAYYQLLECLGVQITC", "soluble on expression in E. coli": "not soluble"}
{"sequence": "MSLKIAVTGGTGFLGQYVVESIKNDGNTPIILTRSIGNKAINDYEYRVSDYTLEDLINQLNDVDAVVHLAATRGSQGKISEFHDNEILTQNLYDACYENNISNIVYASTISAYSDETSLPWNEKELPLPDLMYGVSKLACEHIGNIYSRKKGLCIKNLRFAHLYGFNEKNNYMINRFFRQAFHGEQLTLHANSVAKREFLYAKDAAKSVIYALKQEKVSGTFNIGSGDALTNYEVANTINNAFGNKDNLLVKNPNANEGIHSSYMDSSKAKELLDFSTDYNFATAVEEIHLLMRGLDDVPLWYEGHHHHHH", "soluble on expression in E. coli": "soluble"}
{"sequence": "MGSDKIHHHHHHMKAILIDDDQPTLFILNKMLAKIPRVEIVGEFLNAGDAYHFLKHNPVELAFVDIKMPGESGLDFAWRSLAEFPDLYVVFLTAYKDYAVEAFEVQAFDYIVKPIQQERLERTVSRVLQRKAAGISSRNTVEQAKVLFVYCLGGLDLRNTNDDFVMISSSKGQELFAYLLVHRERLTSKWRIMEDVFQGMSPQNAETYLNTTVYKLRKVLEQYGKRSAIVVASESYVMEIKDFYIDFIEFENKVRTLPSITEANLQEAIQTFHLFAGELFGDKDYQWSLAEKERLGDIYCSFAKKLGRYLLENQNSALALQVFKKLVAINELDEESHCFLLQVYAAQNDLPSLIRHYDRYVQLLQRELAISPSNRTAQLFLSLKKSLL", "soluble on expression in E. coli": "not soluble"}
{"sequence": "MSSPYILVLYYSRHGATAEMARQIARGVEQGGFEARVRTVPAVSTECEAVAPDIPAEGALYATLEDLKNCAGLALGSPTRFGNMASPLKYFLDGTSSLWLTGSLVGKPAAVFTSTASLHGGQETTQLSMLLPLLHHGMLVLGIPYSEPALLETRGGGTPYGASHFAGADGKRSLDEHELTLCRALGKRLAETAGKLGS", "soluble on expression in E. coli": "soluble"}
{"sequence": "MFPSGHNEKWTRGYQRENSLLHHDDEFRSFQRRTDCPQHFYQQTNGYEHSLFGEKAGFHEASAQNLLMHLASQISPMEFAKLQLELLASQNKQRPHRGAGFGSYLMSPPATVSSSRSTVLCCNPAPPYASHCQSPAASDDFGHHFGSFDSMSAYNFHNNNQQQRREAHVSRDGKSFDQGNIYTAEDVHTVVKNHRNENNQRVVSNKVFVGGISHMMNRKIINKFFGQFGTVFVDWPVKQKPNSRGKSIAIGSYSYLFLVYSDEQSVIKLMSACHRNSQNDFFVSVPGFRDMIQIRPWFIYNGFYILEKARHNRIIDIHRTVFLGGLPRIVTAEEIAQMFSEFGVVLLVTIDIDQDYGYPKGAARVTFERDSAFNRALEKKFLKFDNIDSSKTMIEIKPYVMEDVGCDECGGLWFNPFLSIYDHLKCAKDDHQKEQKMAEIKNFNMWSSRSPFSLNSGDGHDDLITKMDAGFKKNCNLACTYSNRENEKNETEMGARKFLEMVKSFGLEKEKTVTVNGNEYPIGPDLWDKFLPAPKYDVGTEPVRMNPEAKLQQFLRMKRTNVYSNKSAYCKEAPCRQYYCPSCSNKLHSGPNQHTLLPAG", "soluble on expression in E. coli": "soluble"}
{"sequence": "MGSDKIHHHHHHMKNLFLYCRAGYEKDCAAEIQQRAAELGIGGFVKANRDDAYVVFQGFSPDDGDRLAKELPLDSLIFARQMFACGDLLDDFSPEDRVTPIAESLTEVERAGELRVETPDTNEAKELSAFCRKFTVPLRQALKKRGVLLDKESSRRPIVHVCFVAPNKAFTGYSLSNNSSPHFMGIPRLKFPADAPSRSTLKLDEAFIHFIPREEHETRLRSGLNAVDLGACPGGWTYQLVRRGMMVHAIDNGPMNHDLMETGQVTHHRADGFKFEPARRNIYWLVCDMVEKPARVAELMEYWAIQGWFKEAIFNLKLPMKSRYKEVSQILANMHAILKENGIHEFHLACKHLYHDRDEVTVHLWLRPSSPWI", "soluble on expression in E. coli": "not soluble"}
{"sequence": "MGSDKIHHHHHHMKQLLAYCLSIILCVSFTGCMENYLDLYPEDKITSASFPENESDIKLLLNGVYAQLREKEVYNQGLFGFGITDGATPNAFNWGTDEVFNKLGAGRLSSSDGGVVTYRWKRCYEIISRANYLLACMDLVDLSEEAKAKYSGETHFLRGLAYSVLAETYGGVPIILTDISTEEARSLKRASLEETWQQALDDYEVAITNLGVDAPEPGRATKGAALGMKMRAYLYQGKYKEVLSCVEQIDALKKYGLFHSYEGLFDPANENNKEVLFDIQYIEGENSQGSYIDQYCGTGTGSWTRGSRYVPTDDLVAAYETIDGSPVDPENPYENRDPRLGFTAVLPGSYFLGYRFPNYLYPGGAFNHAGNRLKHLSTRKYRIQDESKLPPSGQSYINDIILRYADVLLSKAEAIIETNGNVADAIAILNRIRTERDDVKISLLPTSMSREEAREKVRHERRIELALEGRYWSDVKRWKIGKELYPMIIKDHEGSVIETKFPNGYLEYYDLLPIPDSERSLNPNLDQNPGW", "soluble on expression in E. coli": "not soluble"}
{"sequence": "MDSGLKALEAVLAIARKGSFRAAALDLGVSTTALSHTVARLEAGLGVRLFHRTTRSVALTEAGREFVARIAPALTEIRAALETVRSQRATPSGMLRINASVQAGRAVAPLVLAFLRRYPEMRVDLVTEGRLLDIVAEGFDMGIRPADLVPRDMIALPLGLPVRHAVVASPDWLVRHPEPRSPADLDPDACLRVRLPNGALLRWPFQKDGVPLPFEASGRLTVDEAAIARAAVLDGAGIGYFIEADVAEDIAAGRMIRLLEDWTPNRPGFSLYYSGRRNPSAGFTAFLAMAREREAA", "soluble on expression in E. coli": "not soluble"}
{"sequence": "MKDTVKSLKQELQTITHWEHSQKDLWFWEKLGRLPFQVLDKLTPKVVHRKLGQLLDELGSYIQSGGQYLVNEGKVLDKLGVSSLAEVPHLPLETMDRVCDELIDARVTFAQLQGAATGIGGALTLAVDIPALLGLALKTLQEIAIVYGYDPKEKEERVFVVKCLQFAAADIVGKKAILDELSSFSNERGRVFSELQGWREVMMTFRDQYGWKKLFQAVPIIGVIFGSLFNKSFMEDIAETGKMLYRKRRIIEKLKQFEPGI", "soluble on expression in E. coli": "not soluble"}
